Source: publication PMC10201424, “Biochemical characterisation of Mer3 helicase interactions and the protection of meiotic recombination intermediates” (Nucleic Acids Research, 2022)

Experiments:
MBP-Mlh1;MBP-Mlh2 = target: T1, MBP-Mlh1;MBP-Mlh2 (Saccharomyces cerevisiae;Saccharomyces …, UniProt P38920;Q07980 1-769;1-695, |); test: EMSA; robust binding; EMSA: 25 mM HEPES pH 7.5, 0.1 ug/ul BSA, 60 mM NaCl, 10 nM DNA, 20 min at 30 C; 0.8% agarose in 1x TAE; Mer3 37.5-300 nM, Mlh1-Mlh2 20-150 nM; conditions: protein: recombinant;recombinant; tags: N-terminal 6xHis-MBP;N-terminal 6xHis-MBP; copies: 1;1; label: 5'-FAM on strand 1; synthetic D-loop of 4 annealed oligos
T1 sequence 1: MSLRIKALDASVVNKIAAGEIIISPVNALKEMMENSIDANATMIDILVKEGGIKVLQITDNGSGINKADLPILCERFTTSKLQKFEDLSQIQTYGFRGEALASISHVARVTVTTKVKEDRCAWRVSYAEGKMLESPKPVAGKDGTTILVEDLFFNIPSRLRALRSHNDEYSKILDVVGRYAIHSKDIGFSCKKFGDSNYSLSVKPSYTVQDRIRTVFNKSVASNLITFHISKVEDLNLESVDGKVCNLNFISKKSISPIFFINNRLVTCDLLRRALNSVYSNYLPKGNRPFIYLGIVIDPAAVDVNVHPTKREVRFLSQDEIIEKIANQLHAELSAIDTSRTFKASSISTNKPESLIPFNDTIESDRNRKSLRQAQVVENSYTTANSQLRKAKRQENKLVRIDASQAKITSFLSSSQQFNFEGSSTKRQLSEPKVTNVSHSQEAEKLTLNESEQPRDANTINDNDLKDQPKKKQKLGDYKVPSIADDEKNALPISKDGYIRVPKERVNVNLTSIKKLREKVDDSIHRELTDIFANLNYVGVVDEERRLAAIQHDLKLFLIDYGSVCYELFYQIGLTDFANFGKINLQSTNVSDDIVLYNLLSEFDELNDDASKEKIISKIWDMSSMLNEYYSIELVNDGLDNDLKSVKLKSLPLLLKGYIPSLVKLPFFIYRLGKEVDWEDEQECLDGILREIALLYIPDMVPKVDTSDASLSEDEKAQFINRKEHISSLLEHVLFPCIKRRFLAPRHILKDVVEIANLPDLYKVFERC
T1 sequence 2: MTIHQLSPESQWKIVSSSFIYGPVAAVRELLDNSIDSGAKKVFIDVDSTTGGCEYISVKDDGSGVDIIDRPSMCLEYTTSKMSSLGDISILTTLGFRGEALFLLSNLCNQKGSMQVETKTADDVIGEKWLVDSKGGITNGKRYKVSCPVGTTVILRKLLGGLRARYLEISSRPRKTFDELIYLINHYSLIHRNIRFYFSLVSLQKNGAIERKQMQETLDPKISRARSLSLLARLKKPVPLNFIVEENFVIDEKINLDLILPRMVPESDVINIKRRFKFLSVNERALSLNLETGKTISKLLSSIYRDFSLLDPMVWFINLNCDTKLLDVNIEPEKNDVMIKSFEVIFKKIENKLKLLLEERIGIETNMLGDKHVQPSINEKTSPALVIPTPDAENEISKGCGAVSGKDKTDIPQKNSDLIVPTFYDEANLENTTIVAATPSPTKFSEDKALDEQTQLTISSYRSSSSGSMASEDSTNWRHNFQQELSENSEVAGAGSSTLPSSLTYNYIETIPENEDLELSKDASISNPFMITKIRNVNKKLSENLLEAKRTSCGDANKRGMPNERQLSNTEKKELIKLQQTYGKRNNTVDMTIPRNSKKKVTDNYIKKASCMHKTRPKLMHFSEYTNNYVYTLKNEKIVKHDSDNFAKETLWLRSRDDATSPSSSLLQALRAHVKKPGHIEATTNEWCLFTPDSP

His-Mlh1;Strep-Mlh2 = target: T2, His-Mlh1;Strep-Mlh2 (Saccharomyces cerevisiae;Saccharomyces …, UniProt P38920;Q07980 1-769;1-695, |); test: as above; conditions: protein: recombinant;recombinant; tags: N-terminal 6xHis;N-terminal Twin-StrepII; copies: 1;1; label: 5'-FAM on strand 1; synthetic D-loop of 4 annealed oligos
T2 sequence 1: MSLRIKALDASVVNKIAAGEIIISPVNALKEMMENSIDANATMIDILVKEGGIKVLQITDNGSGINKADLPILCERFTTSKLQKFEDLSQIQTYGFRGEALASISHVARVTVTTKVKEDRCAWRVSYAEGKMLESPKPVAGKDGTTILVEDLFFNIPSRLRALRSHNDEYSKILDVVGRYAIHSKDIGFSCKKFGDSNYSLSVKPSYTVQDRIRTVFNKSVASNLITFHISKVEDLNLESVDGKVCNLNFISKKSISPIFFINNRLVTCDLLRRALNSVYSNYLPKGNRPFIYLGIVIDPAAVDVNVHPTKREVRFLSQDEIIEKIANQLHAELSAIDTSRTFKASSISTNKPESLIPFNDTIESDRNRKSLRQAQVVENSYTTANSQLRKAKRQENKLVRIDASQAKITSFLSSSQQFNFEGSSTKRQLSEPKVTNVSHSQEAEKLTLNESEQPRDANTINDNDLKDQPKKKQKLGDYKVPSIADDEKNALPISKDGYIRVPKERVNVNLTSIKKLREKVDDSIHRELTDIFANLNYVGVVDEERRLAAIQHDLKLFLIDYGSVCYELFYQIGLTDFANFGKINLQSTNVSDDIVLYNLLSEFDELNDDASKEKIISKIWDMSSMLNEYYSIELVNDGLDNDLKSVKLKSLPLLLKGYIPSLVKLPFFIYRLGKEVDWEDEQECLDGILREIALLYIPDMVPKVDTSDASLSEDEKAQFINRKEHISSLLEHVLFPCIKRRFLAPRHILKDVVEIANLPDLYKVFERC
T2 sequence 2: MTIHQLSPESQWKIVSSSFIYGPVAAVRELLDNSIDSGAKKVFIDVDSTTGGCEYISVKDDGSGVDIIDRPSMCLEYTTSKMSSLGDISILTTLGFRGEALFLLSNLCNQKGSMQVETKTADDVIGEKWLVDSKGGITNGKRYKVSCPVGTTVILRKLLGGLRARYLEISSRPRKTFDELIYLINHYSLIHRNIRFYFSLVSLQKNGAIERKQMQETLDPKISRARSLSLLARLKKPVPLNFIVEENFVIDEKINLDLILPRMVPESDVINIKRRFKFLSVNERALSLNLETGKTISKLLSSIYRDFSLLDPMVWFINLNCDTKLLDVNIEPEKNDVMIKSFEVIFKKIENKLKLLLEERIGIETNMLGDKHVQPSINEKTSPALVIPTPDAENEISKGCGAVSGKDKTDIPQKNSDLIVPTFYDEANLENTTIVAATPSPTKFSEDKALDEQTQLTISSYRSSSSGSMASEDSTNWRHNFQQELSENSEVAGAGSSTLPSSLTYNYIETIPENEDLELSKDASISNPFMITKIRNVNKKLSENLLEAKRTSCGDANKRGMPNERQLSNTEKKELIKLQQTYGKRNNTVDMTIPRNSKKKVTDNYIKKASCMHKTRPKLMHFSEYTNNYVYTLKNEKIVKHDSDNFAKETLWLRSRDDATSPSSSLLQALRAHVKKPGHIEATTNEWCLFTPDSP

Mer3 = target: T3, Mer3 (Saccharomyces cerevisiae, UniProt P51979 1-1187); test: EMSA; no Mg or ATP; high affinity; EMSA: 25 mM HEPES pH 7.5, 0.1 ug/ul BSA, 60 mM NaCl, 10 nM DNA, 20 min at 30 C; 0.8% agarose in 1x TAE; Mer3 37.5-300 nM, Mlh1-Mlh2 20-150 nM; conditions: protein: recombinant; tags: C-terminal Twin-StrepII; label: 5'-FAM on strand 1; synthetic D-loop of 4 annealed oligos
T3 sequence: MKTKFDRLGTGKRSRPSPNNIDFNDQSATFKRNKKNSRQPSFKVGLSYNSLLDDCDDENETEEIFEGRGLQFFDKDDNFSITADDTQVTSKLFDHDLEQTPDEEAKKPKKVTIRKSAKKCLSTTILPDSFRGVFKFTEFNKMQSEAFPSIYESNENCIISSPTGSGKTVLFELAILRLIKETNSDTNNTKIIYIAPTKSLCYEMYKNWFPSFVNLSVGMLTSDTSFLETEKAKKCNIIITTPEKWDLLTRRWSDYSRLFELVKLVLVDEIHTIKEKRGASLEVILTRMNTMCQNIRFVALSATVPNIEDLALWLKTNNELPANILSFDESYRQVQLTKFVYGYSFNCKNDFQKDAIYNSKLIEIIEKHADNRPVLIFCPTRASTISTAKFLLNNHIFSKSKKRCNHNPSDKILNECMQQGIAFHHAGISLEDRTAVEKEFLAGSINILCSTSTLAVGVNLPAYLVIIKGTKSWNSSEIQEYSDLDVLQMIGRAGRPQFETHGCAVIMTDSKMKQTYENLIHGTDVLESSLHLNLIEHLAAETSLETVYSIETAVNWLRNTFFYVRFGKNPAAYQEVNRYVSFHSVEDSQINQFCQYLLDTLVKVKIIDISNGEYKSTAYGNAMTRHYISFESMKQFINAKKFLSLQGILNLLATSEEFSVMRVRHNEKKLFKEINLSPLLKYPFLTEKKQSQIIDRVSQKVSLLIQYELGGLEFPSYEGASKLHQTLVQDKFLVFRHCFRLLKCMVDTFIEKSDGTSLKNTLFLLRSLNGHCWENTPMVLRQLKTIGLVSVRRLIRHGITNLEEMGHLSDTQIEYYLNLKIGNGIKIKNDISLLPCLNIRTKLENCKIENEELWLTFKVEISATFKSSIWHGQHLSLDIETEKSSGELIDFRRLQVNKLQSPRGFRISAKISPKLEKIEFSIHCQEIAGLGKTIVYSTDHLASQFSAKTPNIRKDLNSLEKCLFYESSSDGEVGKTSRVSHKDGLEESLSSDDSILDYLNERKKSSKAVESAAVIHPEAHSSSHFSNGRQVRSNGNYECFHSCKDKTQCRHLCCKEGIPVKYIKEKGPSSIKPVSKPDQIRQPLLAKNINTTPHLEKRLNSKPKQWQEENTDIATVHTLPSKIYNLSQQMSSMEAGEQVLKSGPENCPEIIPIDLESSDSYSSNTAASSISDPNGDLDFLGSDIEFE

Measured: binding result

B1: D-loop (1253-T, 315, 320, X12-3SC) (mixed)
DNA 1: GGGTCAACGTGGGCAAAGATGTCCTAGCAATGTAATCGTCTATGACGTT
DNA 2: AACGTCATAGACGATGATCCGATGCATATCCGCCTGCCCACGTTGACCC
DNA 3: GCGATAGTCTCTAGACAGCATGTCCTAGCAATACATTGCTAGGACATCTT
DNA 4: TTGCTAGGACATGCTGTCTAGAGACTATCGC
binds: all assays above
